The numbers were not newly measured in paper PMC6605686, which cites them from elsewhere.

The data set addresses Glu325 (UniProt position 325, TLHMFEVPFLL). In words: kinetics. The note with it: sugar binding to LacY; apparent pK of galactoside affinity.

Turning to “Lactose permease (LacY) (Escherichia coli)”, the pKa result is “∼10.5”.
